Measured values taken from patent US20200317736A1.

Target: Multidrug transporter EmrE (Escherichia coli (strain K12)) (Escherichia coli (strain K12)) (UniProt P23895)
Assay: cell-based or functional assay

Chain of UniProt P23895 (P23895 whole entry): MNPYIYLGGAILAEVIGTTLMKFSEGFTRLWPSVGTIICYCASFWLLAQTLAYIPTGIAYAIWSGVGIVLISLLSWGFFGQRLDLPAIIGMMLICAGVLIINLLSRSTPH

Row | Substance | inhibition of ethidium bromide efflux from E. coli K12 cells (fluorescence decay), peptide 4 uM [%]
1 | A87-I94 (peptide) | 60
2 | M92-L99 (peptide) | 68
3 | I89-A96 (peptide) | 26
